Measured values published in patent publication US20110229459A1 (Chugai, published 2011).
One block for each binder: values may come before it.

Tests used:
[1] = target: T1, cytoplasmic domain-lacking human NR10 on CHO cells (human, UniProt Q8NI17 20-553); test: FMAT competition on hNR10-expressing CHO cells; blocked ligand: FMAT Blue-labeled hIL-31; mean +/- S.D. (n=3)
T1 construct: The construct lacks the cytoplasmic domain; also called hNR10-expressing CHO cells; hNR10
T1 sequence: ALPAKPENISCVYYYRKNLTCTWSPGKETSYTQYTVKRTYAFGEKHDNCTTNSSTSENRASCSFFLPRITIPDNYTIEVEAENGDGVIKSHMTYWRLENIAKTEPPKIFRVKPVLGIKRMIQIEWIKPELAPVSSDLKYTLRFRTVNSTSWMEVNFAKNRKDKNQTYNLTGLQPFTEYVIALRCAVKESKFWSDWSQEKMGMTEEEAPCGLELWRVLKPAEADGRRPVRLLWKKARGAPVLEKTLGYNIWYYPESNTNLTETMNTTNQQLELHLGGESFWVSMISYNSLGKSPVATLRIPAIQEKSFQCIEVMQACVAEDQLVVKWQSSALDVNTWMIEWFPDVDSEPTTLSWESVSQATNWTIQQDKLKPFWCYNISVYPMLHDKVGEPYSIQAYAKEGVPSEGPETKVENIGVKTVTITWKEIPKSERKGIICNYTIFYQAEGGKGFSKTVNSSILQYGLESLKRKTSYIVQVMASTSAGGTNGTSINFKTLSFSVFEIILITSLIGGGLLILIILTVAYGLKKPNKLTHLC
Method: Antibodies were assessed for the activity of inhibiting the IL-31/NR10 binding by using hNR10-expressing CHO cells as described below. The chimeric NS22 antibody and NS22_H0L0 (H chain, H0-SKSC/SEQ ID NO: 54; L chain, L0/SEQ ID NO: 56) were diluted at an appropriate concentration using Assay buffer (10 mM HEPES, 140 mM NaCl, 2.5 mM CaCl₂, 3 mM MgCl₂, 2% FBS, 0.01% NaN₃, pH7.4), and further eight serial dilutions were prepared at a common dilution ration of 2. The dilutions were added at 40 μl/well to plates (96-Well FMAT Plates, Applied Biosystems). Then, FMAT Blue-labeled hIL-31 was diluted 400 times with Assay buffer, and added at 20 μl/well. Finally, a cell suspension adjusted to 2.5×10⁵ cells/ml using Assay buffer was added at 40 μl/well (final 1×10⁴ cells/well). Two hours after addition of cells, the fluorescence (FL1) was measured using the 8200 Cellular Detection System (Applied Biosystems).
Each variant was tested for the activity of inhibiting the hIL-31/hNR10 binding by using FMAT. The test was carried out according to the method as described in Example 4.

[2] = target: T2, rhNR10 (human, UniProt Q8NI17 20-519, limits assumed); test: SPR (Biacore T100): antibody captured on Protein A, rhNR10 as analyte
T2 construct: also called recombinant human NR10; IL-31 receptor
T2 sequence: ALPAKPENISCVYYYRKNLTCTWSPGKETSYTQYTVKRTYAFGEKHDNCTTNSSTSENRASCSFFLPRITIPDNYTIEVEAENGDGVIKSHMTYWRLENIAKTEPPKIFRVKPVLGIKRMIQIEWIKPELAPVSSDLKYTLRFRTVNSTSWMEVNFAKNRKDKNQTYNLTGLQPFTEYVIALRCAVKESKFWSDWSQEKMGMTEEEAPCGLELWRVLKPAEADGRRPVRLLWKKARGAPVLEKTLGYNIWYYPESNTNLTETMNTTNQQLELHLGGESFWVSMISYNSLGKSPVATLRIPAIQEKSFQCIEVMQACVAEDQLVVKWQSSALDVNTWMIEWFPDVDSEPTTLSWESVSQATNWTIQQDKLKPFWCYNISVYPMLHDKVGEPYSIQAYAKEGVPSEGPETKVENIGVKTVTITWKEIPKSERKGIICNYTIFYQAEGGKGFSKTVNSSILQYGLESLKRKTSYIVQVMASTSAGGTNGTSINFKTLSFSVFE
Method: Kinetic analysis of the antigen-antibody reaction was carried out using Biacore T100 (GE Healthcare Biosciences). The antigen-antibody interaction was measured by immobilizing rec-Protein A (hereinafter Protein A) (ZYMED) onto a sensor chip, capturing an antibody on the immobilized Protein A, and then reacting the antigen as an analyte. Various concentrations of rhNR10 were used as the antigen. The kinetic parameters, association rate constant kₐ (1/Ms) and dissociation rate constant kd (1/s), were calculated from the sensorgrams obtained by the measurement. Then, KD (M) was determined based on the rate constants. Each parameter was determined using Biacore T100 Evaluation Software version 1.1 (GE Healthcare Biosciences).
The running buffer used was HBS-EP+. Each antibody was prepared at 0.25 μg/ml, or prepared so that about 100 RU would bind to Protein A. rhNR10 used as an analyte was prepared at 0, 38.5, 77.0, and 154 nM, or at 0, 19.25, and 77.01 nM using HBS-EP+. In the measurement, first, the antibody solution was captured on Protein A, and an analyte solution was reacted at a flow rate of 20 μL/min for three minutes. Then, the solution was switched to HBS-EP+, and the dissociation phase was measured for five minutes. […] The obtained sensorgrams were kinetically analyzed using the Biacore-specific data analysis software, Biacore T100 Evaluation Software Version 1.1.

[3] = target: T3, soluble human FcRn (human, UniProt P55899 24-290; P16213 21-119); test: SPR (Biacore 3000), pH 6.0: antibody captured on the chip, human FcRn as analyte, steady state affinity
T3 construct: The stated ranges include the signal regions; also called hFcRn; complex of FcRn and β2-microglobulin
Method: The binding to human FcRn was assessed using Biacore 3000.
The affinity was calculated using BIAevaluation software. The obtained sensorgram was used to calculate the amount of hFcRn bound to the antibody immediately before the end of human FcRn injection. This was fitted by the steady state affinity method to calculate the affinity of human FcRn for the antibody.
The binding activities of huPM1-IgG1 and huPM1-M58 to human FcRn were assessed using BIAcore.

IC50 (read off the curve) [1]: ~0.09 µg/mL
B1: Hp9 variant of H0L0 (antibody, V domains shown)
VH: QVQLVQSGAEVKKPGASVKVSCKASGYTFTGYIMNWVRQAPGQGLEWMGLINPYNGGTSYNQQFKGRVTITADESTSTAYMELSSLRSEDTAVYYCARDGYDDGPYTMDYWGQGTLVTVSS
VL: DIQMTQSPSSLSASVGDRVTITCRTSENIYSFLAWYQQKPGKAPKLLIYNAKTLAKGVPSRFSGSGSGTDFTLTISSLQPEDFATYYCQHHYESPLTFGGGTKVEIKR
notes: Variant of H0L0; also called Hp9-VH

fold affinity against H0L0 [2]: ~2 times
B2: H0L12 (H chain, H0-M58; L chain, L12) (antibody, V domains shown)
VH: QVQLVQSGAEVKKPGASVKVSCKASGYTFTGYIMNWVRQAPGQGLEWMGLINPYNGGTSYNQKFKGRVTITADESTSTAYMELSSLRSEDTAVYYCARDGYDDGPYTMDYWGQGTLVTVSS
VL: DIQMTQSPSSLSASVGDRVTITCQTSEDIYSFVAWYQQKPGKAPKLLIYNAQTEAQGVPSRFSGSGSGTDFTLTISSLQPEDFATYYCQHHYDSPLTFGGGTKVEIKR

fold binding activity against huPM1-IgG1 [3]: ~1.4 times
B3: huPM1-M58 (humanized anti-IL-6 receptor antibody with constant region M58) (antibody)
heavy: QVQLQESGPGLVRPSQTLSLTCTVSGYSITSDHAWSWVRQPPGRGLEWIGYISYSGITTYNPSLKSRVTMLRDTSKNQFSLRLSSVTAADTAVYYCARSLARTTAMDYWGQGSLVTVSSASTKGPSVFPLAPSSKSTSGGTAALGCLVKDYFPEPVTVSWNSGALTSGVHTFPAVLQSSGLYSLSSVVTVPSSNFGTQTYTCNVDHKPSNTKVDKTVERKSCVECPPCPAPPVAGPSVFLFPPKPKDTLMISRTPEVTCVVVDVSQEDPEVQFNWYVDGVEVHNAKTKPREEQFNSTFRVVSVLTVVHQDWLNGKEYKCKVSNKGLPAPIEKTISKTKGQPREPQVYTLPPSQEEMTKNQVSLTCLVKGFYPSDIAVEWESNGQPENNYKTTPPMLDSDGSFFLYSKLTVDKSRWQEGNVFSCSVMHEALHNHYTQKSLSLSP
light: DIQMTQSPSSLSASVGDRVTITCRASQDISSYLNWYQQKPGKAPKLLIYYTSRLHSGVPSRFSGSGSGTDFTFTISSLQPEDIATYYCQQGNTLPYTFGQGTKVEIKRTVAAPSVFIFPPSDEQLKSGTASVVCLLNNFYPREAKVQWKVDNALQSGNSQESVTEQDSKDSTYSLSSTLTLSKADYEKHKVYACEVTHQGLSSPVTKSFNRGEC
notes: copies: 2 + 2
